The record followed here is patent US20150148405A1, “Expression Construct for a Lin28-Resistant Let-7 Precursor MicroRNA” (THE JOHNS HOPKINS UNIVERSITY, priority 2012, published 2015).

The test system of assay [1] is hippocampal pyramidal neurons. Kind of assay: Endogenous P-body numbers by GW182 immunostaining. In kind it is cell-based, mouse. The settings on record: 75 min after stimulation; mock 11.36±1.21; p<0.05. From the text: For fixed cells, confocal images were acquired in 0.3 μm (dendrites) or 1.7 μm (whole cells for arborization) Z sections on an LSM5 Pascal system (Carl Zeiss) using a 63×, 1.4 NA Plan Apochromat oil immersion objective and 2× optical zoom (dendrites) or using a 25×, 0.80 NA Plan-Neofluor multi-immersion objective and 0.7×-1× optical zoom (for whole cells). GFP was excited at 488 nm and emissions collected at 505-530 nm; mCherry was excited at 543 nm and emissions collected above 560 nm. Laser power and exposure time were adjusted to minimize photobleaching and avoid saturation. All experiments were from a minimum of 3 independent cultures and no more than 3 neurons per dish Z-stacks containing the entire neuron or process of interest were analyzed using Imaris 7.0.0 (Bitplane) and ImageJ software. […] The percent colocalization of P-body components was calculated by […]. The percent of colocalized fluorescence was calculated for each P-body component by first summing the aggregate fluorescence values that co-localized with the other P-body marker in ‘spots’, then dividing this quantity by the value of the total fluorescence intensity within the dendrite for that channel, and multiplying by 100. […]

In a further assay the test system is KCC2 mRNA. The assay is described as follows: RT-qPCR of mRNA abundance. It is filed as cell-based, mouse. Particulars: control neurons, BDNF 100 ng/mL, 2 hours. The protocol: For analysis of mRNA abundance: 1 μg of RNA was immediately reverse-transcribed into cDNA with a taqman reverse transcripton kit (Applied Biosystems) and a mixture of random decamer and oligo(dT) primers in a final volume of 30 μL and subjected to TaqMan Gene Expression Assays (Applied Biosystems) for GluR1 (assay ID: Mm00433753_m1), CaMKIIu (Mm00437967_m1), Homer2 (Mm01314936_m1), KCC2 (Mm00803929_m1), Kv1.1 (Mm00439977_s1), GW182 (Mm00523487_m1), GAPDH (Mm99999915_g1), and β-tubulin-III (Mm00727586_s1). RT-qPCR was performed using a Stratagene Mx3000P machine and software in 20 μL reactions on a 96-well optical plate at 95° C. for 5 min, followed by 40 cycles of 95° C. for 30 sec, 55° C. for 1 min and 72° C. for 30 sec. The threshold and threshold cycle (Ct) values were determined using default settings. Standard curves were constructed and used for quantitation of target transcript abundance. In this method, 1:5 dilution series of an independent Standard sample are amplified to generate a curve that relates the initial quantity of the specific target in the Standard samples to the Ct. The standard curve is then used to derive by interpolation the initial sample template quantities based on their Ct values. All derived quantities were further normalized to neuron-specific β-tubulin III, whose translational status is unchanged by BDNF (Schratt et al., 2004). […]
A general note: Real-time PCR tracks product formation cycle by cycle.

B1: BDNF: brain-derived neurotrophic factor, a neurotrophin used to stimulate hippocampal neurons (protein, UniProt P23560 19-247, looked up)
Neurotrophic factor BDNF …: APMKEANIRGQGGLAYPGVRTHGTLESVNGPKAGSRGLTSLADTFEHVIEELLDEDQKVRPNEENNKDADLYTSRVMLSSQVPLEPPLLFLLEEYKNYLDAANMSMRVRRHSDPARRGELSVCDSISEWVTAADKKTAVDMSGGTVTVLEKVPVSKGQLKQYFYETKCNPMGYTKEGCRGIDKRHWNSQCRTTQSYVRALTMDSKKRIGWRFIRIDTSCVCTLTIKRGR
Regarding B1, the “endogenous P-body numbers in individual neuronal dendrites, mean±SEM” value in assay [1] was 15.48±1.26. Further, in the assay with KCC2 mRNA, the “KCC2 mRNA levels” value is “reduced mRNA levels”.
